Patent publication US20250223319A1

Molecular target: F HIV-clamp (respiratory syncytial virus)
Assay: capture ELISA, 101F coat and MPE8 detection; antigen yield estimate, control

MPE8 (antibody)
yield by MPE8 binding ELISA: 10 mg/L
